Reference: paper PMC3668531 (FEBS Open Bio, 2012)

Target: the molecule itself
Test: crystal structure; H101N crystals by vapour diffusion (7-8% PEG 20,000, 50 mM MES pH 6.3), 1 mM MnCl2 added, quick soak in 33% (w/v) L-rhamnose or D-allose; data at 100 K; four molecules (Mol-A to Mol-D) forming the tetramer

B1: mutant P. stutzeri L-RhI with a substitution of His101 with Asn (H101N) (enzyme, Pseudomonas stutzeri)
chain: MAEFRIAQDVVARENDRRASALKEDYEALGANLARRGVDIEAVTAKVEKFFVAVPSWGVGTGGTRFARFPGTGEPRGIFDKLDDCAVIQQLTRATPNVSLNIPWDKADPKELKARGDALGLGFDAMNSNTFSDAPGQAHSYKYGSLSHTDAATRAQAVEHNLECIEIGKAIGSKALTVWIGDGSNFPGQSNFTRAFERYLSAMAEIYKGLPDDWKLFSEHKMYEPAFYSTVVQDWGTNYLIAQTLGPKAQCLVDLGHHAPNTNIEMIVARLIQFGKLGGFHFNDSKYGDDDLDAGAIEPYRLFLVFNELVDAEARGVKGFHPAHMIDQSHNVTDPIESLINSANEIRRAYAQALLVDRAALSGYQEDNDALMATETLKRAYRTDVEPILAEARRRTGGAVDPVATYRASGYRARVAAERPASVAGGGGII
stoichiometry N: 4
